Measurements as given in patent US12630596B2, “Engineered lysin-human defensin protein” (priority 2018, dated 2026).

Assays:
[1] = system: C. difficile R20291; assay: Minimum inhibitory concentration (MIC) on strain R20291; assay type: cell-based, Clostridium difficile; conditions: strain R20291, BHIS, 37° C. for 18 h
Description: The minimum inhibitory concentrations (MICs) of LHD and LCD were determined using the protocol of Wiegand, et al. (Wiegand, Hilpert et al. 2008) with some modifications, as described previously (Gilmer, Schmitz et al. 2017). In brief, strain R20291 was grown in BHIS and adjusted to ˜5×10^5 cells/ml in BHIS, and distributed into the wells of a 96-well round bottom polystyrene microtiter plate. In the wells of each row, either sterile-filtered lysin or control vehicle (metronidazole, vancomycin and fidaxomicin) was added with a final concertation varied from 200 μg/ml to 0.19 μg/ml (2-fold dilution) (Wiegand, Hilpert et al. 2008). The plates were incubated at 37° C. for 18 h. The MIC was “the lowest or minimum concentration of lysin or control vehicle that prevented the formation of a cell pellet (a measure of growth) on the bottom of the wells” (Gilmer, Schmitz et al. 2017). The MICs were also confirmed by measuring the OD600 values using a Bio-Rad plate reader (Bio-Rad, Hercules, CA).

[2] = system: C. difficile strains M120, VPI 10463, CD630, LC693, 1377; assay: Optical drop assay, lytic activity on other clinical epidemic C. difficile strains; assay type: cell-based, Clostridium difficile
From the text: C. difficile strains R20291 (ribotype 027), M120 (ribotype 078), VPI 10463 (ribotype 087; ATCC 43255), CD630 (ribotype 012), LC693 (ribotype unknown, ST201), and 1377 (ribotype 012) were used in this study. Strains M120 and VPI 10463 were provided by Dr. Joseph A. Sorg from Texas A&M University. Strains R20291 and CD630 were provided by Dr. Abraham L. Sonenshein from Tufts University. Strains 1377 and LC693 were epidemic clinical strains in China (Li, Liu et al. 2015, Peng, Liu et al. 2017).
The lytic activity of proteins LHD and LCD against C. difficile strains was determined as previously described (Wang, Euler et al. 2015). Briefly, C. difficile strains were cultured in an anaerobic chamber to mid-log phase, and the bacterial pellets were harvested by centrifugation at 3000×g for 5 min. Pellets were washed twice and re-suspended in sterilized ddH2O, and resuspensions were not buffered. Prior to tests, bacterial optical density at 600 nm (OD600) was adjusted to approximately 0.8-1.0. Proteins LHD and LCD were added into the cell re-suspension with the final concentration of 200 μg/ml. The drop in OD600 at 37° C. was measured every 10 minutes for 60 min˜90 min. Bacterial re-suspension with sterilized water was also set as a control. Three repeats were included in each test.

B1: LHD: Fusion of phage phiC2 lysin catalytic domain (LCD, 179aa), (GGGGS)3 linker and human alpha-defensin 5; SEQ ID NO:1 (protein)
chain: MKICITVGHSILKSGACTSADGVVNEYQYNKSLAPVLADTFRKEGHKVDVIICPEKQFKTKNEEKSYKIPRVNSGGYDLLIELHLNASNGQGKGSEVLYYSNKGLEYATRICDKLGTVFKNRGAKLDKRLYILNSSKPTAVLIESFFCDNKEDYDKAKKLGHEGIAKLIVEGVLNKNINGGGGSGGGGSGGGGSATCYCRTGRCATRESLSGVCEISGRLYRLCCR
In the case of B1, the MIC [1] is reported as 0.78 µg/mL, the “lytic activity (drop in OD600)” value ([2]; different types of clinical epidemic strains, 200 μg/ml) is reported as “potent lytic activities” and the “lytic activity compared with LCD” value ([2]; strain M120, p<0.05) is reported as “more potent than LCD”. The “lytic activity compared with LCD” value ([2]; strains VP110463, CD630, LC693 and 1377) was “slightly more potent”.
